T1: human BTLA extracellular domain with C-terminal 10xHis tag (human, UniProt Q7Z6A9 31-157)
T1 construct: also called HuBTLA-His; His-tag-huBTLA
T1 sequence: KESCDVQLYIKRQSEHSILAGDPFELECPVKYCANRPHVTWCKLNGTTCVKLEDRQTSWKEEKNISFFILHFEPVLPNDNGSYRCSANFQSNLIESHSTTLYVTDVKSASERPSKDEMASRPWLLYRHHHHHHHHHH

T2: huBTLA as coated in the binding ELISA of Example 3 (tag not stated) (human, UniProt Q7Z6A9 31-157)
T2 construct: Detection was with anti-human IgG Fc
T2 sequence: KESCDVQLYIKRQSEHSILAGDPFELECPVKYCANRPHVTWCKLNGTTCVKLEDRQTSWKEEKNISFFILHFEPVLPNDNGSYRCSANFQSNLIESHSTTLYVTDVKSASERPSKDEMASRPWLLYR

T3: rhesus monkey BTLA extracellular domain protein with His tag (Sino Biological, cat #90250-C08H) (rhesus monkey, UniProt G7MKA9 31-157)
T3 construct: extracellular domain; Bought protein; also called His-tag-rhesus monkey BTLA; not shown: His tag
T3 sequence: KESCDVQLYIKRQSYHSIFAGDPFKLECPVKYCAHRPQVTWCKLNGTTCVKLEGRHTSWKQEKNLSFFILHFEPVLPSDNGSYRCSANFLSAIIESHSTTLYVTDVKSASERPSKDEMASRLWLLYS

T4: human BTLA extracellular domain with C-terminal mouse IgG2a Fc tag (human; mouse, UniProt Q7Z6A9 31-157)
T4 construct: also called huBTLA with mIgG2a Fc tag; not shown: mouse IgG2a Fc, C-terminal
T4 sequence: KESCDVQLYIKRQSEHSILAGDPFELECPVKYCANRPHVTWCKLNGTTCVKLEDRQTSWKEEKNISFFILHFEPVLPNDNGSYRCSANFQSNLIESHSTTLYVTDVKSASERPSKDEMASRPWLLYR

T5: extracellular domain of human BTLA with FAS, expressed on Jurkat cells (human, UniProt Q7Z6A9 31-157; P25445 174-335, limits assumed)
T5 sequence (looked up): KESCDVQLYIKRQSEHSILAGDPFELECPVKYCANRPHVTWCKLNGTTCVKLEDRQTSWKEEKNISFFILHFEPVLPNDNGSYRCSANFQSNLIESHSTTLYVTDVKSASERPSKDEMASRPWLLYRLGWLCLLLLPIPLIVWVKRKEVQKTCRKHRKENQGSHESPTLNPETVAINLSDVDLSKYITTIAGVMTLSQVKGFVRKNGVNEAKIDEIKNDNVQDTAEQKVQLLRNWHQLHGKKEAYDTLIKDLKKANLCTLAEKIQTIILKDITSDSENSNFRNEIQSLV


Experiments:
[1] = molecular target: T1, human BTLA extracellular domain with …; assay: BLI (Octet RED96), antibody captured on AHC biosensor, His-tag-huBTLA in solution, 1:1 model
Description: (§1) The following kinetic assay was performed using anti-human IgG Fc capture (AHC) biosensors (ForteBio) in kinetics buffer (PBS, 0.1% Tween-20 and 1% bovine serum albumin): (a) antibody (2 μg/mL) for 300 sec, (b) baseline for 120 sec, (c) association with purified His-tag-huBTLA (2.5, 0.5 and 0 μg/mL) and His-tag-rhesus monkey BTLA (Sino Biologcal, cat #90250-C08H) (2.5, 0.5 and 0 μg/mL) for 420 sec and (d) dissociation for 1200 sec. Data fitting and analysis was performed with Octet data analysis software 8.0 (ForteBio) using a 1:1 binding model after Savitzky-Golay filtering.

[2] = molecular target: T2, huBTLA as coated in the binding ELISA …; assay: ELISA, huBTLA coated at 0.333 ug/mL, anti-human IgG Fc-AP detection
Description: (§2) BTLA binding of purified recombinant chimeric antibodies by ELISA: The huBTLA and rhesus monkey BTLA antigen binding ELISA was performed on the purified recombinant chimeric antibodies. Briefly, 384-well, clear flat bottom high binding plates (Corning, cat #3700) were coated overnight at 4° C. with 0.333 μg/mL of huBTLA or rhesus monkey BTLA in PBS. The following purified process was performed as described in ELISA binding assay in Example 2, except that the secondary antibody was goat anti human IgG Fc-AP (Southern Biotech, cat #2014-04).

[3] = molecular target: T3, rhesus monkey BTLA extracellular domain …; assay: ELISA, rhesus monkey BTLA coated at 0.333 ug/mL, anti-human IgG Fc-AP detection
Description: as §2

[4] = molecular target: T4, human BTLA extracellular domain with …; assay: blocking ELISA, huBTLA-mIgG2a Fc coated; competitor huHVEM-His (2 ug/ml)
Description: HVEM blocking by purified recombinant chimeric antibodies by ELISA: Human HVEM (huHVEM) blocking ELISA was performed on purified recombinant chimeric anti-BTLA antibodies. Briefly, 384-well, clear flat bottom high binding plates (Corning, cat #3700) were coated overnight at 4° C. with 0.333 μg/mL purified huBTLA with mIgG2a Fc tag in PBS (coating solution). After removing the coating solution, the plates were blocked by adding blocking buffer and incubated at 37° C. for 1 hour. Plates were then washed 3 times with wash buffer. Serial dilution of purified chimeric antibodies in PBS were added to individual well followed by incubation at 37° C. for 1 hour. Plates were washed 3 times with wash buffer. Then 30 μL per well of 2 μg/ml human HVEM with His tag (Sino Biological, cat #10334-H08H) in assay buffer was added into the reaction and incubated for 1 hour. Plates were washed 3 times with wash buffer. Then 30 μL per well of mouse anti-his-AP (Southern Biotech, cat: 4603-04) at 1:500 dilution in ELISA diluent was added, and incubated at 37° C. for 30 min, then the plates were washed 5 times with wash buffer and developed for 30 minutes with 30 μL per well of pNPP substrate. Plates were analyzed with a Bio-TEK at 405 nm. The blocking IC₅₀ value represents the antibody concentration that inhibited 50% of huHVEM binding to coated human BTLA.

[5] = molecular target: T6, human BTLA (Uniprot Q7Z6A9) expressed on cells (human, UniProt Q7Z6A9 31-289); assay: cell-based or functional assay
[6] = molecular target: T2, huBTLA as coated in the binding ELISA …; assay: ELISA, plate coated with huBTLA, detection with goat anti-human IgG Fc-AP, OD405
Description: as §2

[7] = molecular target: T3, rhesus monkey BTLA extracellular domain …; assay: ELISA, plate coated with rhesus monkey BTLA, detection with goat anti-human IgG Fc-AP, OD405
Description: as §2

[8] = molecular target: T5, extracellular domain of human BTLA with …; assay: cell-based or functional assay
[9] = molecular target: T1, human BTLA extracellular domain with …; assay: BLI (Octet RED96), antibody on AHC biosensor, His-tag-huBTLA in solution
Description: as §1
(§3) Binding affinities (monovalent Kd) of humanized anti-BTLA antibodies were determined using Biolayer interferometry on the Octet RED96 instrument (ForteBio) as described above in Example 3, except for (c) association with His-tag-huBTLA ([…]) for 420 sec.

[10] = molecular target: T6, human BTLA (Uniprot Q7Z6A9) expressed …; assay: flow cytometry on huBTLA-overexpressing Expi293 cells, MFI
Description: (§4) Expi293 cells stably overexpressing huBTLA were incubated with the chimeric anti-BTLA antibodies 83F2 or 86B7 in PBS containing 0.5% BSA, 1 mM EDTA, and 0.1% sodium azide (FACS buffer) for 30 minutes at 4° C. The cells were washed, and then incubated with 10 nM phycoerythrin (PE) conjugated anti-Human Fc Ab (BioLegend, cat #409304) for 20 minutes at 4° C. Cells were washed and then analyzed by flow cytometry with Attune (ThermoFisher Scientific). Data were analyzed with FlowJo software. Antibody binding is represented as median fluorescence intensity (MFI).
FACS based binding assays of humanized anti-BTLA antibodies were performed as described above in Example 3.

[11] = molecular target: T6, human BTLA (Uniprot Q7Z6A9) expressed …; assay: cell-based or functional assay; remark: listed apart in the source
[12] = molecular target: T6, human BTLA (Uniprot Q7Z6A9) expressed …; assay: flow cytometry blocking assay, Expi293-huBTLA cells pre-incubated with titrated SB2003-12, then His-mouse HVEM (concentration not given) and PE anti-His antibody
Description: (§5) Cells were washed and stained with PE conjugated anti-His antibody (Thermofisher Scientific, CAT: TA150130). For antibody blocking assay, the exemplary humanized anti-BTLA antibody SB2003-12 was pre-incubated with the cell line followed by mouse HVEM and anti-His antibody staining. Cells were washed and fixed with 2% PFA and were analyzed by flow cytometry with Attune. MFI of HVEM staining was analyzed with FlowJo software.

[13] = molecular target: T6, human BTLA (Uniprot Q7Z6A9) expressed …; assay: flow cytometry blocking assay on huBTLA-overexpressing Expi293 cells, antibody titrated, soluble human HVEM-mouse IgG2a Fc detected
Description: (§6) Expi293 cells stably overexpressing huBTLA were incubated with chimeric anti-BTLA antibody 83F2 or 86B7 for 30 minutes at 4° C. The cells were washed, and then incubated with human HVEM-mouse IgG2a Fc recombinant protein (Acro Biosystems, cat #HVM-H5255) at […] concentration for 20 minutes at 4° C. The human HVEM bindings were detected by goat anti-mouse Alexa 488 secondary antibody (ThermoFisher, cat #A-11029). Cells were washed and acquired by flow cytometry with Attune. Data were analyzed with FlowJo software. BTLA binding is represented as MFI.
FACS based blocking assays of humanized anti-BTLA antibodies were performed as described above in Example 3.

[14] = molecular target: T1, human BTLA extracellular domain with …; assay: BLI (Octet RED96), antibody on AHC biosensor, His-tag-huBTLA in solution; column head prints nM, but Koff/Kon shows the values are in M
Description: as §1, §3

[15] = molecular target: T6, human BTLA (Uniprot Q7Z6A9) expressed …; assay: flow cytometry blocking on huBTLA-overexpressing Expi293 cells; competitor human HVEM-mouse IgG2a Fc
Description: as §6

[16] = molecular target: T6, human BTLA (Uniprot Q7Z6A9) expressed …; assay: flow cytometry on Expi293 cells stably overexpressing huBTLA, PE anti-human Fc
Source text: To examine the binding of the chimeric anti-BTLA antibodies to huBTLA overexpressing cells, Expi293 cells stably overexpressing huBTLA were used to perform FACS analysis. Briefly, the coding sequence of huBTLA (Uniprot, Q7Z6A9) was cloned into a lentiviral vector and the recombinant virus was packaged according to the instruction of the virus packaging kit (Lenti-X™ Packaging Single Shots, Cat #631275, Takada). The Expi293 cells were transduced with the recombinant virus.
as §4

[17] = molecular target: T6, human BTLA (Uniprot Q7Z6A9) expressed …; assay: flow cytometry, His-mouse HVEM on Expi293-huBTLA cells, PE anti-His antibody, MFI
Description: as §5

Row | Binder | Kd [1] | koff [1] | kon [1] | EC50 [2] | EC50 [3] | IC50 [4] | EC50 of recovery of IL-2 production, Raji-HVEM/Jurkat-BTLA coculture [5] | EC50 (read off the curve) [6] | EC50 (read off the curve) [7] | EC50 of inhibition of huHVEM-Fc-induced apoptosis, Jurkat-huBTLA-FAS cells (ATP luminescence) [8] | koff [9] | kon [9] | EC50 (read off the curve) [10] | EC50 of recovery of IL-2 production, Raji-HVEM/primary human T cell coculture [11] | IC50 (read off the curve) [12] | IC50 (read off the curve) [13] | Kd [14] | IC50 [15] | EC50 [16] | EC50 (read off the curve) [17]
1 | humanized anti-BTLA antibody SB2003-12 (antibody, V domains shown) VH: QVTLKESGPTLVKPTQTLTLTCTFSGFSLSTFGMGVSWIRQPPGKALEWLAHIYWDDDKRFNPSLKSRLTITKDTSKNQVVLTMTNMDPVDTATYYCAHGNWDGETYFDYWGQGTLVTVSS VL: DVVMTQSPLSLPVTLGQPASISCKSTQSLLDSDGKTYLNWLQQRPGQSPRSLIYLVSKLDSGVPDRFSGSGSGTDFTLKISRVEAEDVGVYYCWQGTHFPWTFGQGTKVEIK |  |  |  |  |  |  |  |  |  | 0.0614 nM | 8.05e-05 s⁻¹ | 418000 M⁻¹ s⁻¹ | ~0.8 nM | 4.91 nM | ~2 nM | ~0.4 nM | 0.198 nM |  |  | 
2 | His-mouse HVEM protein (Sino Biological, cat #10567-M03H) (ligand, UniProt Q80WM9 39-206, looked up, Bought protein; also called musHVEM; not shown: His tag) QPSCRQEEFLVGDECCPMCNPGYHVKQVCSEHTGTVCAPCPPQTYTAHANGLSKCLPCGVCDPDMGLLTWQECSSWKDTVCRCIPGYFCENQDGSHCSTCLQHTTCPPGQRVEKRGTHDQDTVCADCLTGTFSLGGTQEECLPWTNCSAFQQEVRRGTNSTDTTCSSQ |  |  |  |  |  |  |  |  |  |  |  |  |  |  |  |  |  |  |  | ~2 nM

Further lines, results first:

Row | Kd [1] | koff [1] | kon [1] | EC50 [2] | EC50 [3] | IC50 [4] | EC50 of recovery of IL-2 production, Raji-HVEM/Jurkat-BTLA coculture [5] | EC50 (read off the curve) [6] | EC50 (read off the curve) [7] | EC50 of inhibition of huHVEM-Fc-induced apoptosis, Jurkat-huBTLA-FAS cells (ATP luminescence) [8] | koff [9] | kon [9] | EC50 (read off the curve) [10] | EC50 of recovery of IL-2 production, Raji-HVEM/primary human T cell coculture [11] | IC50 (read off the curve) [12] | IC50 (read off the curve) [13] | Kd [14] | IC50 [15] | EC50 [16] | EC50 (read off the curve) [17] | Binder
3 | 1.18 nM | 0.000697 s⁻¹ | 607000 M⁻¹ s⁻¹ | 0.0482 nM | 0.057 nM | 1.04 nM | 2.54 nM | ~0.3 nM | ~0.4 nM |  |  |  |  |  |  |  |  |  |  |  | chimeric anti-BTLA antibody 96F11 (antibody, V domains shown) VH: EVQLQQSGAELVKPGASVELSCTASGFNIKDTYIYWVKQRPEQGLQWIGRIDPANGHTKYDPRFQDKATLTAEISSNTAHLQLNSLTSEDTAVYFCVRGGDHPYYVMDWWGQGTSVTVSS VL: not shown
4 | 2.91 nM | 0.000548 s⁻¹ | 188000 M⁻¹ s⁻¹ | 0.0564 nM | 0.0542 nM | 1.24 nM | 1.85 nM | ~0.4 nM | ~0.4 nM |  |  |  |  |  |  |  |  | 0.656 nM | 1.85 nM |  | chimeric anti-BTLA antibody 83F2 (antibody, V domains shown) VH: QVQFQQSGAELARPGASVKLSCKASGYTFTDFWIQWVKQRPGQGLEWIGTIYPGDGDTRENQKFKGRATLTADKSSSTAYMQLSSLESDDSAVYYCARGNGNSWFAYWGQGTLVTVSA VL: not shown
